According to publication PMC8244417:

Legend:
[1] = target: TmZIP C-terminally fused to TEV-GFP-His10; assay: SDS-PAGE of the IMAC-pure protein
[2] = target: TmZIP N-terminally fused to His10-GFP-TEV; assay: SDS-PAGE of the IMAC-pure protein

Substance | stoichiometry N [1] | stoichiometry N [2]
TmZIP C-terminally fused to TEV-GFP-His10 (natural protein) | 2 | 
TmZIP N-terminally fused to His10-GFP-TEV (natural protein) |  | 2
